From article doi:10.1101/2023.08.04.552031, “Oligomerization and positive feedback on membrane recruitment encode dynamically stable PAR-3 asymmetries in the C. elegans zygote” (bioRxiv, 2023)

Key:
[1] = target: the molecule itself; experiment: particle intensities calibrated to single GFP molecules (near-TIRF imaging of living embryos); anterior membrane, where PAR-3 density is higher; homozygous par-1 mutant embryos, late maintenance phase; streaming mode, 100% laser power, 50 msec exposure; features binned by intensity against the mean single molecule intensity after photobleaching; size distribution fitted to An = A1 α^n−1
[2] = target: the molecule itself; experiment: particle intensities calibrated to single GFP molecules (near-TIRF imaging of living embryos); posterior membrane, where PAR-3 density is lower; homozygous par-1 mutant embryos, late maintenance phase; streaming mode, 100% laser power, 50 msec exposure; features binned by intensity against the mean single molecule intensity after photobleaching; size distribution fitted to An = A1 α^n−1
[3] = target: the molecule itself; experiment: single molecule tracking and release curves (near-TIRF imaging of living embryos); single PAR-3::GFP molecules, 100% laser power, 50 msec exposures, duty ratio of exposure varied; release curves fitted to exponentials from tmin = 1 sec; linear fit kops = kdep + dr * kpb, the intercept is kdep (depolymerization of a subunit from membrane-bound oligomers); also in par-6(RNAi) and cdc-42(RNAi) embryos, no significant …

Protein | stoichiometry N [1] | stoichiometry N [2] | koff [3] [s⁻¹]
PAR-3::GFP, endogenously tagged (C-terminal fusion of GFP to PAR-3 from the endogenous locus) (natural protein, C. elegans, UniProt Q17353 1-1379, looked up, PAR-3, C. elegans, oligomeric scaffold protein; expressed from the endogenous locus; Oligomers of variable size (exponential size distribution) at the cell membrane; also called endogenously-tagged PAR-3::GFP; par-1; source: expressed from the endogenous locus in C. elegans, observed in living one-cell embryos; not shown: GFP, C-terminal, kept) MSASSTSSSSTSCPEGGEPSGSCKSSDEGESTLKKRMQQYGIASGYANSSISTLDRSQYQSLPLNGTRRVTVQFGRMKIVVPWKESDQTVGQLADAALLRYKKARGMANEDRIHVHRLECASDGGILDMDDVLEEVFDLNYDQILAITDEANGGSTTPTYSQIQKQQHHYAQPLPYARKFDGGPSTPIASAFGSVTVNHQAHRAASPYNVGFARSNSRDFAPQPTHSKERRDSVVEVSSFDQIPQSGLRVSTPKPSRQSEDVIDGKPMNQPILRSSLRTEASGSRTEEATPVKQSRVTLSPEVEKKLAEQDERKSERRKHYDKNPGRFARGSDRKSRITDALLDARDRIADQLESQNPAEETKSQMIRVKIDQGPMPGTSLVTFPPIPEKSENEKQLGIEVNAVFDESSELPGTSEPTKLSSVQIMKIEDGGRIAKDGRIRVGDCIVAIDGKPVDQMSIIRVRASISDLAAVTSRPVTLIINRSLESFLEQESSAKPIQSALQQANTQYIGHTTVVELIKSSNGFGFTVTGRETAKGERLFYIGTVKPYGVALGHLKSGDRLLEINGTPTGQWTQSEIVEKLKETMVGEKIKFLVSRVSQSAIMSTSASSENKENEETLKVVEEEKIPQKLPLPALMTPPVPKDTPALSPSGASRFEIVIPFINGSSSAGLGVSLKARVSKKSNGSKVDCGIFIKNVMHGGAAFKEGGLRVDDRIVGVEDIDLEPLDNREAQAALAKKLKEVGMISSNVRLTISRYNECNPGQISRDLSRITVDASSPSPSSRMSSHTAPDSLLPSPATRGTSSSGADSSHSRQSSASSAVPAVPARLTERDSIVSDGTSRNDESELPDSADPFNREGLGRKSLSEKRGMGAAADPQHIKLFQDIKHQRQNSAPTSSTQKRSKSQPRSSSQRNYRSPMKLVDLPTTAAASASTNSQNLDDSDMLNRRSQSMESINRPVESILRGTGQIPTGSSSKVQFMQAASPDQHPFPPGAALLRLKNEESRSRDKSRRKSMGNPFSAMRNFFGFGSKSRDASPEKTPTESVQLRSVERPKSIIDERNNGSSERAPPPLPPHQSQRRGSGGNVFVDYGEPYGLIPQYPHNTTSGYESYADSELYDRYAAHRYHPRGGPIIDEDEYIYRQQSTSGNSPINTSSYVNYGLPASNAYHVGSRIPPQTSSGSISKTSGAMRRVYPAEYDEDVAYHQQIPQQSTRYQQGSGSGRGNADYHHMFNSWFAYTGGGAVGAAPVIKSSYGSSPVRIAAASAIERGESFVVEPVSGSSASATDRRGRSTSSGAVASGSSSTGFQYAAKEKYADARSGKFNGGSTRLFIPRHGGGLSAAAFATNFGGEAYETRGGGAGGSPSQYRRRDQGPPHRFPQY | 3.48 ± 0.65 subunits (mean oligomer size) | 1.65 ± 0.16 subunits (mean oligomer size) | –
PAR-3::GFP, transgenic (natural protein, C. elegans, UniProt Q17353 1-1379, looked up, PAR-3, C. elegans; transgenically expressed; The oligomers from which single labelled molecules depolymerise probably also hold unlabelled PAR-3 of the embryo; also called transgenic PAR-3::GFP; full length PAR-3::GFP) MSASSTSSSSTSCPEGGEPSGSCKSSDEGESTLKKRMQQYGIASGYANSSISTLDRSQYQSLPLNGTRRVTVQFGRMKIVVPWKESDQTVGQLADAALLRYKKARGMANEDRIHVHRLECASDGGILDMDDVLEEVFDLNYDQILAITDEANGGSTTPTYSQIQKQQHHYAQPLPYARKFDGGPSTPIASAFGSVTVNHQAHRAASPYNVGFARSNSRDFAPQPTHSKERRDSVVEVSSFDQIPQSGLRVSTPKPSRQSEDVIDGKPMNQPILRSSLRTEASGSRTEEATPVKQSRVTLSPEVEKKLAEQDERKSERRKHYDKNPGRFARGSDRKSRITDALLDARDRIADQLESQNPAEETKSQMIRVKIDQGPMPGTSLVTFPPIPEKSENEKQLGIEVNAVFDESSELPGTSEPTKLSSVQIMKIEDGGRIAKDGRIRVGDCIVAIDGKPVDQMSIIRVRASISDLAAVTSRPVTLIINRSLESFLEQESSAKPIQSALQQANTQYIGHTTVVELIKSSNGFGFTVTGRETAKGERLFYIGTVKPYGVALGHLKSGDRLLEINGTPTGQWTQSEIVEKLKETMVGEKIKFLVSRVSQSAIMSTSASSENKENEETLKVVEEEKIPQKLPLPALMTPPVPKDTPALSPSGASRFEIVIPFINGSSSAGLGVSLKARVSKKSNGSKVDCGIFIKNVMHGGAAFKEGGLRVDDRIVGVEDIDLEPLDNREAQAALAKKLKEVGMISSNVRLTISRYNECNPGQISRDLSRITVDASSPSPSSRMSSHTAPDSLLPSPATRGTSSSGADSSHSRQSSASSAVPAVPARLTERDSIVSDGTSRNDESELPDSADPFNREGLGRKSLSEKRGMGAAADPQHIKLFQDIKHQRQNSAPTSSTQKRSKSQPRSSSQRNYRSPMKLVDLPTTAAASASTNSQNLDDSDMLNRRSQSMESINRPVESILRGTGQIPTGSSSKVQFMQAASPDQHPFPPGAALLRLKNEESRSRDKSRRKSMGNPFSAMRNFFGFGSKSRDASPEKTPTESVQLRSVERPKSIIDERNNGSSERAPPPLPPHQSQRRGSGGNVFVDYGEPYGLIPQYPHNTTSGYESYADSELYDRYAAHRYHPRGGPIIDEDEYIYRQQSTSGNSPINTSSYVNYGLPASNAYHVGSRIPPQTSSGSISKTSGAMRRVYPAEYDEDVAYHQQIPQQSTRYQQGSGSGRGNADYHHMFNSWFAYTGGGAVGAAPVIKSSYGSSPVRIAAASAIERGESFVVEPVSGSSASATDRRGRSTSSGAVASGSSSTGFQYAAKEKYADARSGKFNGGSTRLFIPRHGGGLSAAAFATNFGGEAYETRGGGAGGSPSQYRRRDQGPPHRFPQY | – | – | 0.08
